“Also recorded” adds a separate entry of the source.
Legend:
[1] = target: T1, Hu-Axl-Fc (Homo sapiens, UniProt P30530); assay: Biacore competition binding c10G5 versus YW327.6S2-var (Example 21); details: 666.7 nM each, first and second sample
T1 construct: Fc
Procedure: Injections: • Use Flow Cell(s): 2 with 1 as reference • Flow Rate: 30 (μL/min) • Number of Injections: 2 • First Sample: • Injection Time: 3 (min) • Wait After Injection: 2.5 (min) • Second Sample: • Injection Time: 3 (min) • Wait After Injection: 2.5 (min)
The competitive binding analysis was performed by injecting a first sample (MAbs c10G5 or YW327.6S2-var) at a concentration sufficient to reach plateau within 1-2 min followed by injection of MAb YW327.6S2-var as a second sample (FIG. 21A).
In a second part of the of experiment, the antibody YW327.6S2-var was injected as a first sample followed by injection of either antibody YW327.6S2-var or c10G5 as a second sample (FIG. 21B).

[2] = tested on: cyno-Axl (cyno-Axl-Fc); assay: Biacore binding analysis on immobilised cynomolgus Axl; design: species or system cynomolgus monkey (Macaca fascicularis); details: 10 μg/mL in HBS-EP, 25° C.
Procedure: The sequence of Axl receptor from cynomolgus monkey (Macaca fascicularis; SEQ ID NO: 27) was retrieved from WO2009062690A1. Based on the sequence, recombinant extracellular domain of cyno-Axl was generated by transient expression in CHO cells as a fusion protein with human Fc. The recombinant cyno-Axl-Fc was purified to homogeneity using Protein A-Sepharose (GE Healthcare). The binding experiments were performed using Biacore 3000 instrument (GE Healthcare) at 25° C. The soluble recombinant antigens corresponding to human Axl (rhAxl-Fc chimera; R&D Systems, Cat. no. 154-AL) and cyno-Axl were immobilized on the surface of CM5 sensor chip using amine coupling at the surface density of 775 and 880 RU, respectively. The Biacore runs were performed in an automatic mode using Binding analysis wizard.
The sample containing MAb 10G5 or human Axl-specific MAb 5F11 (control) at concentration 10 μg/mL in HBS-EP buffer (GE Healthcare) was injected over the surfaces with immobilized antigens at flow rate of 30 μL/min for 3 min (association) followed by 5 min dissociation.

[3] = target: T2, Axl receptor protein in MBA-MD-231 cells (Homo sapiens, UniProt P30530); assay: Western blot of Axl receptor protein after antibody treatment; type: cell-based; details: 100 μg/mL, 20 hrs, versus irrelevant IgG or MAb #3
T2 construct: The expression of Axl receptor protein in MBA-MD-231 cells treated with different antibodies was examined by Western blot analysis; endogenous in cells; host or cells: MDA-MB-231 (printed 'MBA-MD-231') human breast carcinoma cells
Procedure: The expression of Axl receptor protein in MBA-MD-231 cells treated with different antibodies was examined by Western blot analysis. The cells were seeded in a 6-well plate at density of 5×10^5 cells per well and cultured overnight before treatment initiation. The cells were treated for 20 hrs in the presence of isotype control (mouse IgG2b), anti-Axl antibodies (10G5 and MAb #3) at concentrations of 100 μg/mL or multikinase inhibitor Foretinib (targets Met, Ron, Axl, Tie-2, and VEGFR2) at a concentration of 0.5 μM followed by harvesting by centrifugation at 1,200 rpm for 5 min and washing with sterile PBS. The cells were collected by centrifugation and resuspended in NP40-lysis buffer followed by 30 min incubation on ice. The cell lysates were cleared by centrifugation (12,000 rpm, 4° C., 5 min) and the protein concentrations were determined using BCA protein assay. The cell lysate samples comprising 35 μg of total protein were denatured in presence of the reducing agent (Life Technologies) and loaded into the wells of NuPAGE 10% Bis-Tris polyacrylamide (PAA) gel, 1.0 mm×12 well (Invitrogen). The electrophoresis was performed using Bis-Tris SDS running buffer under the recommended conditions (Life Technologies) and the proteins were transfer on PVDF membrane, as described for 2 gels in a manual for XCell II™ Blot Module (Invitrogen) using the transfer buffer with 20% methanol. […]

[4] = tested on: MDA-MB-231 cells; assay: Three-dimensional (3D) organotypic tumour mass model; type: cell-based, human
Procedure: A highly aggressive triple-negative human breast cancer cell line MDA-MB-231 (ATCC® HTB-26™) was cultured according to recommended conditions in Dulbecco's Modified Eagle's Medium/Nutrient Mixture F-12 Ham medium supplemented with 10% foetal bovine serum (FBS), glutamine and penicillin and streptomycin. The cells were pre-treated in suspension for at least 1 hour at 37° C., to ensure proper binding of antibodies on the cell surface before they were placed in extracellular matrix. The cells cultures were observed every day and fresh treatments were done every other day. The antibodies were used at concentrations 50-100 μg/mL. Imaging of coverslip 3D assay (35 mm dish) was done on a NIKON light microscopy using both Phase contrast and Hoffman optics. Already at day 3, difference in growth of cells treated with MAb10G5 and cells treated with a control irrelevant IgG was observed.
MDA-MB-231 cells were grown on extracellular matrix and allowed to form the highly aggressive stellate shaped morphology. Stellate-shaped tumour masses were then treated with the control IgG and antibody 10G5, as described in EXAMPLE 7.

Sequence of cyno-Axl (cyno-Axl-Fc) (as listed by the source): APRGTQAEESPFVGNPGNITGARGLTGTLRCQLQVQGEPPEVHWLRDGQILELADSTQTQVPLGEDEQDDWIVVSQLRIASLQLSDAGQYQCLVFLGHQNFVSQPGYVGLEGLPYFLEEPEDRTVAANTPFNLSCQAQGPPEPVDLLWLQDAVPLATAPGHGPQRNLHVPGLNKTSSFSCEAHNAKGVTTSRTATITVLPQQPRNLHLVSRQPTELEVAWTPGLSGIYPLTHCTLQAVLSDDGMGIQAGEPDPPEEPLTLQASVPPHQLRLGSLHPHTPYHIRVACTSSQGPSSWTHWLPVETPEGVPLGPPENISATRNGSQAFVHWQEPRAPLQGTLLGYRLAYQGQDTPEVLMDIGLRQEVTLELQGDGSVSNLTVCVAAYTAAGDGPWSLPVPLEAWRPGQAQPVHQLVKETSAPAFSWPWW

B1: murine 10G5: mouse monoclonal anti-human Axl antibody from hybridoma WR-10G5-E5; VH SEQ ID NO: 28, VL SEQ ID NO: 29 (antibody, listed as Mus musculus, V domains shown)
VH: QVQLQQSGAELVRPGASVKLSCKASGYSFTDFYINWVRQRPGQGLEWIARIFPGGDNTYYNEKFKGKATLTAEESSSTAYIQLSSLTSEDSAVYFCARRGLYYAMDYWGQGISVTVSS
VL: DVLMTQTPLSLPVSLGDQASISCRSSQSLVHSNGIPYLHWYLQKPGQSPKLLIYRVSNRFSGVPDRFSGSGSGTDFTLKISRVEAEDLGVYFCSQGTHVPPTFGGGTKLEIK
modifications: (1)..(118) Mus musculus 10G5 VH domain; (1)..(112) Mus musculus 10G5 VL domain
- Competition between 10G5 and YW327.6S2 for binding to Axl [1]: does not compete
- Binding to Axl from cynomolgus monkey [2]: bind strongly; also recorded: strong and specific interaction
- Axl receptor protein level [3]: significant reduction in the amount of Axl receptor protein
- Effect on established stellate-shaped 3D tumour masses ([4]; 9-days old organoid masses treated 72 hours, versus control IgG): caused degradation of stellate patterns
- Growth and tumour mass development in extracellular matrix ([4]; antibody 50-100 μg/mL, day 6, versus control IgG): significantly inhibited growth and tumour mass development
